Laboratory results taken from paper doi:10.1101/2020.05.11.088153.
Values joined by “and” are separate entries in the source; they are usually repeats but may differ in a detail not shown here. Equal values may be shown once.

Legend:
[1] = biological target: βPFO_(Aβ(1-42)) tetramer (membrane-associated β-sheet pore forming tetramer of Aβ(1-42)) (UniProt P05067); assay: SEC
[2] = biological target: βPFO_(Aβ(1-42)) tetramer (membrane-associated β-sheet pore forming tetramer of Aβ(1-42)) (UniProt P05067); assay: native MS
[3] = biological target: βPFO_(Aβ(1-42)) tetramer (membrane-associated β-sheet pore forming tetramer of Aβ(1-42)) (UniProt P05067); assay: ITC

Substance: somatostatin-14 (from UniProt P61278 103-116) (peptide)
- increase of the area under the tetramer peak [1]: 20%
- stoichiometry N [2]: 1 and 2
- Kd [3]: 23 µM
- stoichiometry N [3]: 2
